Measured values published in patent publication US20230192897A1 (NUMAB THERAPEUTICS, published 2023).

B1: PRO1481 (other)
chain: DIQMTQSPASLSASVGDRVTITCQASQSIGTYLAWYQQKPGKPPKLLIYRAFILASGVPSRFSGSGSGTDFTLTISSLQPEDFATYYCQSNFYSDSTTIGPNAFGTGTKVTVLGGGGGSESQLVESGGGLVQPGGSLRLSCAASGFSFSANYYPCWVRQAPGKGLEWIGCIYGGSSDITYDANWTKGRFTISRDNSKNTVYLQMNSLRAEDTAVYFCARSAWYSGWGGDLWGPGTLVTVSSGGGGSGGGGSGGGGSGGGGSFQLTQSPSSLSASVGDRVTITCQASQSISNRLAWYQQKPGKPPKLLIYSASTLASGVPSRFSGSGSGTDFTLTISSLQPEDFATYYCQSTYYGNDGNAFGTGTKVTVLGGGGGSEVQLVESGGGLVQPGGSLRLSCAASGFSFNSDYWIYWVRQAPGKGLEWIASIYGGSSGNTQYASWAQGRFTISRDNSKNTVYLQMNSLRAEDTAVYFCARGYVDYGGATDLWGQGTLVTVSSGGGGSGGGGSIQMTQSPSSLSASVGDRVTITCQSSESVYSNNQLSWYQQKPGQPPKLLIYDASDLASGVPSRFSGSGSGTDFTLTISSLQPEDFATYYCAGGFSSSSDTAFGGGTKLTVLGGGGGSGGGGSGGGGSGGGGSEVQLVESGGGLVQPGGSLRLSCAASGFSLSSNAMGWVRQAPGKGLEYIGIISVGGFTYYASWAKGRFTISRDNSKNTVYLQMNSLRAEDTATYFCARDRHGGDSSGAFYLWGQGTLVTVSS
notes: trispecific scDb-scFv; also called 38-27-A11 sc03 scDb-i/37-20-B03 sc09.1 scDb-o/19-01-H04 sc03 scFv
B2: PRO1432 (other)
chain: DIQMTQSPSSLSASVGDRVTITCQASQSINNVLAWYQQKPGKAPKLLIYRASTLASGVPSRFSGSGSGTDFTLTISSLQPEDFATYYCQSSYGNYGDFGCGTKVTVLGGGGGSQVQLQESGPGLVKPSETLSLTCKASGFSFSSGYDMCWVRQPPGKGLEWIACVVAGSVDITYYASWAKGRVTISKDSSKNQVSLKLSSVTAADTAVYYCARKDAYSDAFNLWGQGTLVTVSSGGGGSGGGGSGGGGSGGGGSIQMTQSPSSLSASVGDRVTITCQASQSINDYLAWYQQKPGKAPKLLIYKASTLASGVPSRFSGSGSGTDFTLTISSLQPEDFATYYCQQGYIITDIDNVFGTGTKVTVLGGGGGSEVQLVESGGGLVQPGGSLRLSCAASGFSFSNSYWICWVRQAPGKCLEWIGCTFVGSSDSTYYANWAKGRFTISRDNSKNTVYLQMNSLRAEDTAVYYCARHPSDAVYGYANNLWGQGTLVTVSSGGGGSGGGGSIQMTQSPSSLSASVGDRVTITCQSSESVYSNNQLSWYQQKPGQPPKLLIYDASDLASGVPSRFSGSGSGTDFTLTISSLQPEDFATYYCAGGFSSSSDTAFGGGTKLTVLGGGGGSGGGGSGGGGSGGGGSEVQLVESGGGLVQPGGSLRLSCAASGFSLSSNAMGWVRQAPGKGLEYIGIISVGGFTYYASWAKGRFTISRDNSKNTVYLQMNSLRAEDTATYFCARDRHGGDSSGAFYLWGQGTLVTVSS
notes: trispecific scDb-scFv; also called 33-03-G02 sc18 scDb-i/38-02-A04 sc13 scDb-o/19-01-H04 sc03 scFv

Tests used:
Fc tagged human PDL1 = target: T1, Fc tagged human PDL1 (human, UniProt Q9NZQ7 19-239); assay: SPR
T1 construct: Bought (Sino Biological, cat. 10084-H02H); captured on the SPR chip; also called PDL1-Fc chimeric protein
Description: (§1) Affinity to PDL1 of the different species was determined by SPR measurements using a Biacore T200 device (GE Healthcare). An antibody specific for the Fc region of human IgGs was immobilized on a sensor chip (CM5 sensor chip, GE Healthcare) by amine-coupling. For all formats, with the exception of the Fc containing Morrison formats, PDL1-Fc chimeric protein from different species were captured by the immobilized antibody.
(§2) Three-fold serial dilutions of the molecules specific for PDL1 (0.12-90 nM) were injected into the flow cells for three minutes and dissociation was monitored for 10 minutes. After each injection cycle, surfaces were regenerated with one injection of a 3 M MgCl₂ solution. The apparent dissociation (kd) and association (kₐ) rate constants and the apparent dissociation equilibrium constant (KD) were calculated using one-to-one Langmuir binding model. Affinity to CD137 of the different species was determined using the identical setup as for PDL1 with the exception that CD137-Fc chimeric protein from different species were captured by the immobilized antibody.

Fc tagged human CD137 = target: T2, Fc tagged human CD137 (human, UniProt Q07011 24-186); assay: SPR
T2 construct: also called CD137-Fc chimeric protein
Description: as §1, §2

human PDL1 on cells = human PDL1 on cells (human, UniProt Q9NZQ7 19-290); assay: cell-based or functional assay
[1] = target: T3, CD137 on Jurkat NFkB reporter cells (human, UniProt Q07011 24-255); assay: cell-based or functional assay
[2] = target: T3, CD137 on Jurkat NFkB reporter cells; assay: cell-based or functional assay; remark: listed apart in the source
biotinylated human PDL1 [3] = target: T4, biotinylated human PDL1 (human, UniProt Q9NZQ7 19-238, limits assumed, biotinylated); assay: competition ELISA B7.1/PDL1
T4 construct: also called biotinylated PDL1
Description: Plates were blocked for 1 hour at room temperature by adding 300 μl of PBS with 1% BSA and 0.2% tween (dilution buffer) to each well. […] The mixtures were pre-incubated for 1 hour at room temperature under gentle agitation on a rotating mixer (21 rpm) and added to the microplates after 3 wash cycles with 450 μl wash buffer per well. Plates were incubated for 1.5 hours at room temperature under gentle agitation, then 10 ng/ml streptavidin-polyHRP40 was added to each microplate well after three washes with 450 μl of wash buffer per well. After 1 h incubation at RT, plates were washed three times with 450 μl wash buffer and TMB substrate solution was added. The enzymatic reaction was stopped after 6 minutes by addition of 1 M HCl and absorbance was measured at 450 nm using 690 nm as a reference wavelength. For calculation of IC₅₀ values, a four-parameter logistic (4PL) curve fit was performed in Graph Pad Prism using reference subtracted values.

biotinylated human PDL1 [4] = target: T4, biotinylated human PDL1; assay: competition ELISA PD-1/PDL1
Description: Plates were blocked for 1 hour at room temperature by adding 300 μl of PBS with i%BSA and 0.2% tween (dilution buffer) to each well. Inhibitors were serially diluted in 3-fold steps to final concentrations ranging from 300 to 0.005 ng/ml in dilution buffer containing 1 ng/ml biotinylated human PDL1. The mixtures were pre-incubated for 1 hour at room temperature under gentle agitation on a rotating mixer (21 rpm) and added to the microplates after 3 wash cycles with 450 μl wash buffer per well. Plates were incubated for 1.5 hours at room temperature under gentle agitation, then 10 ng/ml streptavidin-polyHRP40 was added to each microplate well after three washes with 450 μl of wash buffer per well. After 1 h incubation at RT, plates were washed three times with 450 μl wash buffer and TMB substrate solution was added. The enzymatic reaction was stopped after 6 minutes by addition of 1 M HCl and absorbance was measured at 450 nm using 690 nm as a reference wavelength. For calculation of IC₅₀ values, a four-parameter logistic (4PL) curve fit was performed in Graph Pad Prism using reference subtracted values.

Binder | kon (Fc tagged human PDL1) [M⁻¹ s⁻¹] | Kd (Fc tagged human CD137) [nM] | koff (Fc tagged human CD137) [s⁻¹] | kon (Fc tagged human CD137) [M⁻¹ s⁻¹] | IC50 (ng/ml), NF-AT potency assay, +HSA (human PDL1 on cells) [ng/mL] | rel. IC50 (avelumab/test), +HSA (human PDL1 on cells) [fold] | IC50 (ng/ml) (EC50 in Table 16C), NFkB reporter, HCC827 + IFNg, 24 h, +HSA [1] [ng/mL] | rel. IC50 (PRO1186/test), 24 h [1] [fold] | Area under the curve (calculated using PRO885 normalized data), first line (6 h by the order of the upper part) [2] | Area under the curve (calculated using PRO885 normalized data), second line (24 h by the order of the upper part) [2] | EC50 [ng/ml], NF-kB reporter, HCC827 + IFNg, +HSA, 6 h [2] [ng/mL] | IC10/EC90 ratio, first line (6 h by the order of the upper part) [2] | IC10/EC90 ratio, second line (24 h by the order of the upper part) [2] | Maximum NF-kB activation (rel. to PRO1186) [%], first line (6 h by the order of the upper part) [2] [%] | Maximum NF-kB activation (rel. to PRO1186) [%], second line (24 h by the order of the upper part) [2] [%] | rel. Area under the curve (AUCsample/AUCPRO1186), first line (6 h by the order of the upper part) [2] [fold] | rel. Area under the curve (AUCsample/AUCPRO1186), second line (24 h by the order of the upper part) [2] [fold] | rel. EC50 (EC50, PRO1186/EC50, sample), NF-kB reporter, 6 h [2] [fold] | rel. EC50 (EC50, PRO1186/EC50, sample), NF-kB reporter, 24 h [2] [fold] | rel. IC10/EC90 (ratio of sample/ratio of PRO1186), first line (6 h by the order of the upper part) [2] [fold] | other results
B1 | 4.7e+06 | 0.33 | 0.0002 | 630000 | 40.6 | 0.92 | 5.51 | 0.58 | 292 | 254 | 7.22 | 23.7 | 41 | 147 | 117 | 1.37 | 1 | 1.04 | 0.58 | 1.71 | Kd (Fc tagged human PDL1): 0.0092 nM; rel. IC10/EC90 (ratio of sample/ratio of PRO1186), second line (24 h by the order of the upper part) [2]: 5.72 fold; IC50 (biotinylated human PDL1 [3]): 10.1 ng/mL; rel. IC50 (IC50 avelumab/IC50 test) (biotinylated human PDL1 [3]): 1.45 fold; IC50 (biotinylated human PDL1 [4]): 2.69 ng/mL; rel. IC50 (IC50 avelumab/IC50 test) (biotinylated human PDL1 [4]): 0.84 fold
B2 | 4.2e+06 | 0.75 | 0.00045 | 600000 | 18.5 | 1.98 | 21.9 | 0.75 | 111 | 150 | 19.4 | 26.8 | 3.57 | 63.4 | 83.8 | 0.59 | 0.81 | 0.67 | 0.75 | 0.36 | koff (Fc tagged human PDL1): 4.4e-05 s⁻¹; rel. IC10/EC90 (ratio of sample/ratio of PRO1186), second line (24 h by the order of the upper part) [2]: 0.16 fold; IC50 (biotinylated human PDL1 [3]): 2.83 ng/mL; rel. IC50 (IC50 avelumab/IC50 test) (biotinylated human PDL1 [3]): 0.99 fold; IC50 (biotinylated human PDL1 [4]): 3.26 ng/mL; rel. IC50 (IC50 avelumab/IC50 test) (biotinylated human PDL1 [4]): 0.43 fold
